# Source: paper PMC13254535, “The RecBCD complex interacts directly with the DNA sliding clamp in Escherichia coli” (Nucleic Acids Research, 2026)
# Where two headings read alike, the source gives them in different places.
# B1: RecB: wild type RecB subunit of the E. coli RecBCD complex (T18 fusion, his-tagged or HaloTag according to test) (protein)
# chain: MSDVAETLDPLRLPLQGERLIEASAGTGKTFTIAALYLRLLLGLGGSAAFPRPLTVEELLVVTFTEAATAELRGRIRSNIHELRIACLRETTDNPLYERLLEEIDDKAQAAQWLLLAERQMDEAAVFTIHGFCQRMLNLNAFESGMLFEQQLIEDESLLRYQACADFWRRHCYPLPREIAQVVFETWKGPQALLRDINRYLQGEAPVIKAPPPDDETLASRHAQIVARIDTVKQQWRDAVGELDALIESSGIDRRKFNRSNQAKWIDKISAWAEEETNSYQLPESLEKFSQRFLEDRTKAGGETPRHPLFEAIDQLLAEPLSIRDLVITRALAEIRETVAREKRRRGELGFDDMLSRLDSALRSESGEVLAAAIRTRFPVAMIDEFQDTDPQQYRIFRRIWHHQPETALLLIGDPKQAIYAFRGADIFTYMKARSEVHAHYTLDTNWRSAPGMVNSVNKLFSQTDDAFMFREIPFIPVKSAGKNQALRFVFKGETQPAMKMWLMEGESCGVGDYQSTMAQVCAAQIRDWLQAGQRGEALLMNGDDARPVRASDISVLVRSRQEAAQVRDALTLLEIPSVYLSNRDSVFETLEAQEMLWLLQAVMTPERENTLRSALATSMMGLNALDIETLNNDEHAWDVVVEEFDGYRQIWRKRGVMPMLRALMSARNIAENLLATAGGERRLTDILHISELLQEAGTQLESEHALVRWLSQHILEPDSNASSQQMRLESDKHLVQIVTIHKSKGLEYPLVWLPFITNFRVQEQAFYHDRHSFEAVLDLNAAPESVDLAEAERLAEDLRLLYVALTRSVWHCSLGVAPLVRRRGDKKGDTDVHQSALGRLLQKGEPQDAAGLRTCIEALCDDDIAWQTAQTGDNQPWQVNDVSTAELNAKTLQRLPGDNWRVTSYSGLQQRGHGIAQDLMPRLDVDAAGVASVVEEPTLTPHQFPRGASPGTFLHSLFEDLDFTQPVDPNWVREKLELGGFESQWEPVLTEWITAVLQAPLNETGVSLSQLSARNKQVEMEFYLPISEPLIASQLDTLIRQFDPLSAGCPPLEFMQVRGMLKGFIDLVFRHEGRYYLLDYKSNWLGEDSSAYTQQAMAAAMQAHRYDLQYQLYTLALHRYLRHRIADYDYEHHFGGVIYLFLRGVDKEHPQQGIYTTRPNAGLIALMDEMFAGMTLEEA
# modifications: left off: T18 (Bordetella pertussis CyaA fragment), N-terminal, kept
# Experiments:
# [1] = biological target: β-clamp (Escherichia coli, UniProt P0A988)
# β-clamp, sequence (P0A988 whole entry, the tested form may be a part): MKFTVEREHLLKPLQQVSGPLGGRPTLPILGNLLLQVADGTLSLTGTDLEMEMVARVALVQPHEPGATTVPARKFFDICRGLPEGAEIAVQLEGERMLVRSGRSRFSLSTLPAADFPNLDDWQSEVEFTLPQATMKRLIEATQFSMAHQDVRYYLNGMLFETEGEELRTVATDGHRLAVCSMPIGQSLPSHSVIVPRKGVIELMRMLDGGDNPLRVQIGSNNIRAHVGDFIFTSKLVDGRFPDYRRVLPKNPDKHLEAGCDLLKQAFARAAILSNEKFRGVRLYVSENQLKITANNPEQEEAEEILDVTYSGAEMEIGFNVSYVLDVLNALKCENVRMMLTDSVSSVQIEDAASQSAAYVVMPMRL
# From the text: Protein–protein interactions between RecB and β-clamp, as well as between RecB and RecA, were examined using the bacterial adenylate cyclase-based two-hybrid (BACTH) system (Euromedex), as previously described, with optimizations noted below. This system relies on the functional reconstitution of Bordetella pertussis adenylate cyclase (CyaA) fragments T25 and T18, which are genetically fused to the proteins of interest. Upon interaction of the fusion partners, cAMP production is restored in the cyaA-deficient E. coli BTH101 strain, activating downstream reporters such as lacZ and mal operons. Co-transformants were tested using one or several of the following readouts: (i) qualitative X-gal spot assay, (ii) quantitative β-galactosidase assay, and (iii) semi-quantitative growth in M63 minimal medium with maltose.
# Recipient strains (BTH101 or derivatives) were streaked from glycerol stock onto LB agar plates containing streptomycin (100 µg/ml), isopropyl β-D-1-thiogalactopyranoside (IPTG) (0.5 mM), and 5-bromo-4-chloro-3-indolyl β-D-galactopyranoside (X-gal) (40 µg/ml) and incubated at 37°C until cya⁺ (blue) revertants became visible among the cya⁻ (white) colonies. Multiple white colonies were picked and cultured overnight in LB with streptomycin (100 µg/ml) at 37°C. These cultures were diluted 1:50 and expanded before electroporation.
# Transformed cells were immediately recovered in 1 ml SOC at 37°C for 1.5 h with shaking and plated on LB agar supplemented with appropriate antibiotics (Table 4). Plates were incubated at 30°C for up to 3 days.
# Following selection, 3–5 colonies from each transformation plate were pooled to inoculate 1 ml LB containing IPTG (0.5 mM) and the appropriate antibiotics. Cultures were incubated overnight at 30°C with shaking. The same overnight culture was used to seed all subsequent assays. The following day, cultures were diluted 1:100 into fresh LB (containing IPTG and antibiotics) and grown at 30°C to mid-exponential phase (OD600 around 0.5–0.6, measured by Nanodrop One, Thermo Fisher Scientific Inc.) before use in assays.
# The X-gal spot assay was used to visualize protein−protein interactions via blue/white colorimetric readout. Mid-log cultures were serially diluted (10-fold series), and 5 µl of each dilution (including undiluted) was spotted onto LB agar containing IPTG (0.5 mM), X-gal (40 µg/ml), and selective antibiotics. To assess interaction stability under genotoxic stress, an identical plate was exposed to UV light (15 J/m^2). Plates were incubated at 30°C for 2–3 days, and images were captured with a smartphone camera.
# β-galactosidase activity was quantified using a modified Miller assay adapted for 96-well format. Cultures at OD600 around 0.5–0.6 were measured again in a plate reader (Victor Nivo, PerkinElmer, Waltham, MA, USA) to account for instrument variability. Cells were pelleted, resuspended in PM2 buffer (70 mM Na2HPO4, 30 mM NaH2PO4, 1 mM MgSO4, 0.2 mM MnSO4, and 100 mM β-mercaptoethanol), and permeabilized with 0.01% (w/v) sodium dodecyl sulfate (SDS) and 10% (v/v) toluene for 45 min at 37°C. […] Absorbance at 405 nm was recorded, and β-galactosidase activity calculated in Miller Units using the following equation: […]
# This assay exploits the cAMP dependence of the mal regulon, allowing only cya^+ cells with interacting fusion proteins to grow on maltose as sole carbon source. […] Cultures were incubated in triplicate at 30°C with shaking, and OD600 was measured at 24, 48, and 72 h using a plate reader. […]
# [2] = test system: E. coli BTH101 ∆recB strain (IMR04); assay: Ciprofloxacin survival assay (complementation of BTH101 ΔrecB); format: cell-based, Escherichia coli; conditions: expressed from pUT18C in BTH101 ΔrecB; ciprofloxacin 2–16 ng/ml, 2 h, 37°C; CFU; 2 to 3 biological replicates
# Procedure: Non-transformed BTH101 and BTH101 ∆recB served as positive and negative controls, respectively. All strains were cultured at 30°C to early exponential phase (OD600 around 0.2, measured by Nanodrop One) before treatment.
# . Cultures were incubated at 37°C with shaking for 2 h. Following treatment, cells were pelleted by centrifugation and resuspended in fresh LB medium to remove residual antibiotic and halt exposure. Cultures were then serially diluted 10-fold, and 5 µl of each dilution was spotted onto LB agar plates. After overnight incubation at 30°C, CFUs were counted. […]
molecule,measurement,setting,value
B1,interaction strength relative to RecB–RecC positive control,[1],comparable to the RecB–RecC positive control interaction
same,"interaction with β-clamp, β-galactosidase activity",[1],abolished
same,"interaction with β-clamp, β-galactosidase activity","[1]; BTH101 wild-type and ΔrecB backgrounds, 24 h, relative to empty vector negative control",distinct interaction
same,"interaction with β-clamp, β-galactosidase activity",[1]; BTH101 ΔrecA,initially appeared absent
same,"interaction with β-clamp, M63/maltose growth","[1]; BTH101 ΔrecA, M63/maltose variant, longer incubation",the interaction was apparent also in the ΔrecA strain
same,survival after ciprofloxacin,[2],fully restores ΔrecB strain survival to the wild-type strain (BTH101) level
